# B1: Pistol ribozyme (parent)
# chain: GGGUCGUUGUUCCAUAAUCGCGUGGAUAUGGCACGCAAGUUUCUACCGGGCACCGUAAAUGUCCGACUGGAGCCGUUCGGGCGGCUAUAAACAGACCUCAGGCCCGAAGCGUGGCGGCACCUGCCGCCGGUGGUAAAAAAGAUCGGAAGAGCACACGUCU
# Variants of: B1
# Assay: aptazyme ON/OFF ratio, guanine; higher = stronger switching; co-transcriptional cleavage with and without guanine
row,Variant,aptazyme ON/OFF ratio
1,G9C U10A U11A C12A C13U,1.27
2,G9C U10A U11A C12A C13A,1.4
3,G9C U10A U11A C12A C13G,1.21
4,G9C U10C U11A C12U C13U,1.06
5,G9C U10C U11A C12U C13G,1.1
6,G9C U10C U11A C12U C13A,1.08
7,G9A U11G C12A C13G,1.31
8,G9A U11G C12A C13A,1.18
9,G9A U11G C12A C13U,1.32
10,G9C C12U,1.07
11,G9C C12A,1.38
12,G9C C12G,1.35
13,G9A U10C C13A,1.08
14,G9A U10C C13G,1.03
15,G9A U10C C13U,1.23
16,G9C U10C C12G C13U,1.09
17,G9C U10C C12G C13A,1.06
18,G9C U10C C12G C13G,1.09
19,G9A U10G U11C,1.1
20,G9A U10G U11A,1.06
21,G9A U10G U11G,1.11

row,Variant,aptazyme ON/OFF ratio
1,G9A U10G U11A C12U C13A,1.21
2,G9A U10G U11A C12U C13U,1.24
3,G9A U10G U11A C12U C13G,1.2
4,G9A U10C U11C C13A,1.02
5,G9A U10C U11C C13U,1.01
6,G9A U10C U11C C13G,1.07
7,G9C U10A U11A C12G C13G,1.27
8,G9C U10A U11A C12G C13U,1.38
9,G9C U10A U11A C12G C13A,1.31
10,G9C U10C U11C C13G,1.03
11,G9C U10C U11C C13U,1.02
12,G9C U10C U11C C13A,1.02
13,G9A U10G C12A C13U,1.69
14,G9A U10G C12A C13G,1.14
15,G9A U10G C12A C13A,1.29
16,G9C U10A C12G C13U,1.22
17,G9C U10A C12G C13G,1.18
18,G9C U10A C12G C13A,1.31
19,G9A U11C C12U C13U,1.55
20,G9A U11C C12U C13A,1.41
21,G9A U11C C12U C13G,1.38

row,Variant,aptazyme ON/OFF ratio
1,G9A U10G U11G C12U C13U,1.55
2,G9A U10G U11G C12U C13G,1.19
3,G9A U10G U11G C12U C13A,1.08
4,G9C U10A U11C C12U C13U,1.29
5,G9C U10A U11C C12U C13G,1.12
6,G9C U10A U11C C12U C13A,1.25
7,G9A U10C U11C C12G C13G,1.2
8,G9A U10C U11C C12G C13U,1.14
9,G9A U10C U11C C12G C13A,1.16
10,G9A U11C C12G C13U,1.33
11,G9A U11C C12G C13A,1.28
12,G9A U11C C12G C13G,1.15
13,G9C U10A U11G C13G,1.09
14,G9C U10A U11G C13A,1.21
15,G9C U10A U11G C13U,1.35
16,G9C U10C U11G C13A,1.06
17,G9C U10C U11G C13G,1.08
18,G9C U10C U11G C13U,1.08
19,G9A U10C U11G C13A,1.39
20,G9A U10C U11G C13G,1.18
21,G9A U10C U11G C13U,1.39

row,Variant,aptazyme ON/OFF ratio
1,G9C U10C U11C C12U,1.03
2,G9C U10C U11C C12G,1.04
3,G9C U10C U11C C12A,1.04
4,G9A U10C U11G C12U C13G,1.43
5,G9A U10C U11G C12U C13U,1.4
6,G9A U10C U11G C12U C13A,1.37
7,G9A U11C C12A C13A,1.06
8,G9A U11C C12A C13G,1.35
9,G9A U11C C12A C13U,1.23
10,G9C U10C U11G C12U C13G,1.05
11,G9C U10C U11G C12U C13U,1.06
12,G9C U10C U11G C12U C13A,1.04
13,G9A U10C U11A C12A C13U,1.63
14,G9A U10C U11A C12A C13A,1.28
15,G9A U10C U11A C12A C13G,1.42
16,G9A U10G,3.45
17,G9A U10C,3.12
18,G9A U10G U11G C13U,1.12
19,G9A U10G U11G C13A,1.2
20,G9A U10G U11G C13G,1.14

# From the RNAGym collection of RNA variant scans (doi:10.1021/acssynbio.7b00057)
